# In patent publication US20140294898A1 (published 2014):
# Positions of bridges follow the written chain, without caps; N, C: chain ends. Non-standard residues stand in square brackets, D forms with d. Phe(4-tBu) = CC(C)(C)c1ccc(C[C@H](N)C(=O)O)cc1; Bip = N[C@@H](Cc1ccc(-c2ccccc2)cc1)C(=O)O; Phe(4-Br) = N[C@@H](Cc1ccc(Br)cc1)C(=O)O; Phe(4-Cl) = N[C@@H](Cc1ccc(Cl)cc1)C(=O)O; Phe(4-F) = N[C@@H](Cc1ccc(F)cc1)C(=O)O; 1Nal = N[C@@H](Cc1cccc2ccccc12)C(=O)O; 2Nal = N[C@@H](Cc1ccc2ccccc2c1)C(=O)O; 3Pal = N[C@@H](Cc1cccnc1)C(=O)O; 4Pal = N[C@@H](Cc1ccncc1)C(=O)O; 3Thi = N[C@@H](Cc1ccsc1)C(=O)O; NMeNle = CCCC[C@H](NC)C(=O)O; NMeA = CN[C@@H](C)C(=O)O; Sar = CNCC(=O)O
# B1: Compound No. 32 (peptide)
# peptide: {CH2CO}-[Phe(4-F)][NMeA]NPHL[Sar]WSW[NMeNle][NMeNle]RCG-NH2
# modifications: thioether N-14
# SMILES: CCCC[C@H]1C(=O)N(C)[C@@H](CCCC)C(=O)N[C@@H](CCCNC(=N)N)C(=O)N[C@H](C(=O)NCC(N)=O)CSCC(=O)N[C@@H](Cc2ccc(F)cc2)C(=O)N(C)[C@@H](C)C(=O)N[C@@H](CC(N)=O)C(=O)N2CCC[C@H]2C(=O)N[C@@H](Cc2c[nH]cn2)C(=O)N[C@@H](CC(C)C)C(=O)N(C)CC(=O)N[C@@H](Cc2c[nH]c3ccccc23)C(=O)N[C@@H](CO)C(=O)N[C@@H](Cc2c[nH]c3ccccc23)C(=O)N1C
# notes: macrocyclic peptide, Formula I series; also called Compound 32
# B2: Compound No. 39 (peptide)
# peptide: {CH2CO}-[4Pal][NMeA]NPHL[Sar]WSW[NMeNle][NMeNle]RCG-NH2
# modifications: thioether N-14
# SMILES: CCCC[C@H]1C(=O)N(C)[C@@H](CCCC)C(=O)N[C@@H](CCCNC(=N)N)C(=O)N[C@H](C(=O)NCC(N)=O)CSCC(=O)N[C@@H](Cc2ccncc2)C(=O)N(C)[C@@H](C)C(=O)N[C@@H](CC(N)=O)C(=O)N2CCC[C@H]2C(=O)N[C@@H](Cc2c[nH]cn2)C(=O)N[C@@H](CC(C)C)C(=O)N(C)CC(=O)N[C@@H](Cc2c[nH]c3ccccc23)C(=O)N[C@@H](CO)C(=O)N[C@@H](Cc2c[nH]c3ccccc23)C(=O)N1C
# notes: macrocyclic peptide, Formula I series; also called Compound 39
# B3: Compound No. 52 (peptide)
# peptide: FANPHLXWSWXXRCG
# modifications: ClAc on N-terminus cyclized as thioether with Cys14; mAla (N-methyl-Ala) at 2; Dab (2,4-diaminobutyric acid, written X) at 7; mNle (N-methyl-norleucine, written X) at 11 and 12; C-terminal NH2
# notes: macrocyclic peptide, Formula I series; also called Compound 52
# B4: Compound No. 33 (peptide)
# peptide: {CH2CO}-[Phe(4-Cl)][NMeA]NPHL[Sar]WSW[NMeNle][NMeNle]RCG-NH2
# modifications: thioether N-14
# SMILES: CCCC[C@H]1C(=O)N(C)[C@@H](CCCC)C(=O)N[C@@H](CCCNC(=N)N)C(=O)N[C@H](C(=O)NCC(N)=O)CSCC(=O)N[C@@H](Cc2ccc(Cl)cc2)C(=O)N(C)[C@@H](C)C(=O)N[C@@H](CC(N)=O)C(=O)N2CCC[C@H]2C(=O)N[C@@H](Cc2c[nH]cn2)C(=O)N[C@@H](CC(C)C)C(=O)N(C)CC(=O)N[C@@H](Cc2c[nH]c3ccccc23)C(=O)N[C@@H](CO)C(=O)N[C@@H](Cc2c[nH]c3ccccc23)C(=O)N1C
# notes: macrocyclic peptide, Formula I series; also called Compound 33
# B5: Compound No. 65 (peptide)
# peptide: FANPHLGWSWLXRCG
# HELM: PEPTIDE1{[O=C(C[*:3])[*:2]].F.[meA].N.P.H.L.[Sar].W.S.W.[meL].[CCCC[C@@H](C(=O)[*:2])N(C)[*:1]].R.C.G.[am]}$PEPTIDE1,PEPTIDE1,1:R3-15:R3$$$V2.0
# SMILES: CCCC[C@H]1C(=O)N[C@@H](CCCNC(=N)N)C(=O)N[C@H](C(=O)NCC(N)=O)CSCC(=O)N[C@@H](Cc2ccccc2)C(=O)N(C)[C@@H](C)C(=O)N[C@@H](CC(N)=O)C(=O)N2CCC[C@H]2C(=O)N[C@@H](Cc2c[nH]cn2)C(=O)N[C@@H](CC(C)C)C(=O)N(C)CC(=O)N[C@@H](Cc2c[nH]c3ccccc23)C(=O)N[C@@H](CO)C(=O)N[C@@H](Cc2c[nH]c3ccccc23)C(=O)N(C)[C@@H](CC(C)C)C(=O)N1C
# notes: macrocyclic peptide, Formula I series; also called Compound 65
# B6: Compound No. 28 (peptide)
# peptide: {CH2CO}-[Bip][NMeA]NPHL[Sar]WSW[NMeNle][NMeNle]RCG-NH2
# modifications: thioether N-14
# SMILES: CCCC[C@H]1C(=O)N(C)[C@@H](CCCC)C(=O)N[C@@H](CCCNC(=N)N)C(=O)N[C@H](C(=O)NCC(N)=O)CSCC(=O)N[C@@H](Cc2ccc(-c3ccccc3)cc2)C(=O)N(C)[C@@H](C)C(=O)N[C@@H](CC(N)=O)C(=O)N2CCC[C@H]2C(=O)N[C@@H](Cc2c[nH]cn2)C(=O)N[C@@H](CC(C)C)C(=O)N(C)CC(=O)N[C@@H](Cc2c[nH]c3ccccc23)C(=O)N[C@@H](CO)C(=O)N[C@@H](Cc2c[nH]c3ccccc23)C(=O)N1C
# notes: macrocyclic peptide, Formula I series; also called Compound 28
# B7: Compound No. 37 (peptide)
# peptide: {CH2CO}-[Phe(4-tBu)][NMeA]NPHL[Sar]WSW[NMeNle][NMeNle]RCG-NH2
# modifications: thioether N-14
# SMILES: CCCC[C@H]1C(=O)N(C)[C@@H](CCCC)C(=O)N[C@@H](CCCNC(=N)N)C(=O)N[C@H](C(=O)NCC(N)=O)CSCC(=O)N[C@@H](Cc2ccc(C(C)(C)C)cc2)C(=O)N(C)[C@@H](C)C(=O)N[C@@H](CC(N)=O)C(=O)N2CCC[C@H]2C(=O)N[C@@H](Cc2c[nH]cn2)C(=O)N[C@@H](CC(C)C)C(=O)N(C)CC(=O)N[C@@H](Cc2c[nH]c3ccccc23)C(=O)N[C@@H](CO)C(=O)N[C@@H](Cc2c[nH]c3ccccc23)C(=O)N1C
# notes: macrocyclic peptide, Formula I series; also called Compound 37
# B8: Compound No. 26 (peptide)
# peptide: {CH2CO}-[2Nal][NMeA]NPHL[Sar]WSW[NMeNle][NMeNle]RCG-NH2
# modifications: thioether N-14
# SMILES: CCCC[C@H]1C(=O)N(C)[C@@H](CCCC)C(=O)N[C@@H](CCCNC(=N)N)C(=O)N[C@H](C(=O)NCC(N)=O)CSCC(=O)N[C@@H](Cc2ccc3ccccc3c2)C(=O)N(C)[C@@H](C)C(=O)N[C@@H](CC(N)=O)C(=O)N2CCC[C@H]2C(=O)N[C@@H](Cc2c[nH]cn2)C(=O)N[C@@H](CC(C)C)C(=O)N(C)CC(=O)N[C@@H](Cc2c[nH]c3ccccc23)C(=O)N[C@@H](CO)C(=O)N[C@@H](Cc2c[nH]c3ccccc23)C(=O)N1C
# notes: macrocyclic peptide, Formula I series; also called Compound 26
# B9: Compound No. 27 (peptide)
# peptide: {CH2CO}-[1Nal][NMeA]NPHL[Sar]WSW[NMeNle][NMeNle]RCG-NH2
# modifications: thioether N-14
# SMILES: CCCC[C@H]1C(=O)N(C)[C@@H](CCCC)C(=O)N[C@@H](CCCNC(=N)N)C(=O)N[C@H](C(=O)NCC(N)=O)CSCC(=O)N[C@@H](Cc2cccc3ccccc23)C(=O)N(C)[C@@H](C)C(=O)N[C@@H](CC(N)=O)C(=O)N2CCC[C@H]2C(=O)N[C@@H](Cc2c[nH]cn2)C(=O)N[C@@H](CC(C)C)C(=O)N(C)CC(=O)N[C@@H](Cc2c[nH]c3ccccc23)C(=O)N[C@@H](CO)C(=O)N[C@@H](Cc2c[nH]c3ccccc23)C(=O)N1C
# notes: macrocyclic peptide, Formula I series; also called Compound 27
# B10: Compound No. 24 (peptide)
# peptide: {CH2CO}-F[NMeA]NPHL[Sar]WSW[NMeNle][NMeNle]RC-NH2
# modifications: thioether N-14
# SMILES: CCCC[C@H]1C(=O)N(C)[C@@H](CCCC)C(=O)N[C@@H](CCCNC(=N)N)C(=O)N[C@H](C(N)=O)CSCC(=O)N[C@@H](Cc2ccccc2)C(=O)N(C)[C@@H](C)C(=O)N[C@@H](CC(N)=O)C(=O)N2CCC[C@H]2C(=O)N[C@@H](Cc2c[nH]cn2)C(=O)N[C@@H](CC(C)C)C(=O)N(C)CC(=O)N[C@@H](Cc2c[nH]c3ccccc23)C(=O)N[C@@H](CO)C(=O)N[C@@H](Cc2c[nH]c3ccccc23)C(=O)N1C
# notes: macrocyclic peptide, Formula I series; also called Compound 24
# B11: Compound No. 38 (peptide)
# peptide: {CH2CO}-[3Pal][NMeA]NPHL[Sar]WSW[NMeNle][NMeNle]RCG-NH2
# modifications: thioether N-14
# SMILES: CCCC[C@H]1C(=O)N(C)[C@@H](CCCC)C(=O)N[C@@H](CCCNC(=N)N)C(=O)N[C@H](C(=O)NCC(N)=O)CSCC(=O)N[C@@H](Cc2cccnc2)C(=O)N(C)[C@@H](C)C(=O)N[C@@H](CC(N)=O)C(=O)N2CCC[C@H]2C(=O)N[C@@H](Cc2c[nH]cn2)C(=O)N[C@@H](CC(C)C)C(=O)N(C)CC(=O)N[C@@H](Cc2c[nH]c3ccccc23)C(=O)N[C@@H](CO)C(=O)N[C@@H](Cc2c[nH]c3ccccc23)C(=O)N1C
# notes: macrocyclic peptide, Formula I series; also called Compound 38
# B12: Compound No. 34 (peptide)
# peptide: {CH2CO}-[Phe(4-Br)][NMeA]NPHL[Sar]WSW[NMeNle][NMeNle]RCG-NH2
# modifications: thioether N-14
# SMILES: CCCC[C@H]1C(=O)N(C)[C@@H](CCCC)C(=O)N[C@@H](CCCNC(=N)N)C(=O)N[C@H](C(=O)NCC(N)=O)CSCC(=O)N[C@@H](Cc2ccc(Br)cc2)C(=O)N(C)[C@@H](C)C(=O)N[C@@H](CC(N)=O)C(=O)N2CCC[C@H]2C(=O)N[C@@H](Cc2c[nH]cn2)C(=O)N[C@@H](CC(C)C)C(=O)N(C)CC(=O)N[C@@H](Cc2c[nH]c3ccccc23)C(=O)N[C@@H](CO)C(=O)N[C@@H](Cc2c[nH]c3ccccc23)C(=O)N1C
# notes: macrocyclic peptide, Formula I series; also called Compound 34
# B13: Compound No. 69 (peptide)
# peptide: FANPHLGWSWFXRCG
# HELM: PEPTIDE1{[O=C(C[*:3])[*:2]].F.[meA].N.P.H.L.[Sar].W.S.W.F.[CCCC[C@@H](C(=O)[*:2])N(C)[*:1]].R.C.G.[am]}$PEPTIDE1,PEPTIDE1,1:R3-15:R3$$$V2.0
# SMILES: CCCC[C@H]1C(=O)N[C@@H](CCCNC(=N)N)C(=O)N[C@H](C(=O)NCC(N)=O)CSCC(=O)N[C@@H](Cc2ccccc2)C(=O)N(C)[C@@H](C)C(=O)N[C@@H](CC(N)=O)C(=O)N2CCC[C@H]2C(=O)N[C@@H](Cc2c[nH]cn2)C(=O)N[C@@H](CC(C)C)C(=O)N(C)CC(=O)N[C@@H](Cc2c[nH]c3ccccc23)C(=O)N[C@@H](CO)C(=O)N[C@@H](Cc2c[nH]c3ccccc23)C(=O)N[C@@H](Cc2ccccc2)C(=O)N1C
# notes: macrocyclic peptide, Formula I series; Phe at 11 is not N-methylated; also called Compound 69
# B14: Compound No. 40 (peptide)
# peptide: {CH2CO}-[3Thi][NMeA]NPHL[Sar]WSW[NMeNle][NMeNle]RCG-NH2
# modifications: thioether N-14
# SMILES: CCCC[C@H]1C(=O)N(C)[C@@H](CCCC)C(=O)N[C@@H](CCCNC(=N)N)C(=O)N[C@H](C(=O)NCC(N)=O)CSCC(=O)N[C@@H](Cc2ccsc2)C(=O)N(C)[C@@H](C)C(=O)N[C@@H](CC(N)=O)C(=O)N2CCC[C@H]2C(=O)N[C@@H](Cc2c[nH]cn2)C(=O)N[C@@H](CC(C)C)C(=O)N(C)CC(=O)N[C@@H](Cc2c[nH]c3ccccc23)C(=O)N[C@@H](CO)C(=O)N[C@@H](Cc2c[nH]c3ccccc23)C(=O)N1C
# notes: macrocyclic peptide, Formula I series; also called Compound 40
# Target: T1, human PD-L1 (human, UniProt Q9NZQ7 19-239, limits assumed)
# T1 construct: also called Hu PD-L1; hPD-L1
# Experiment: cell binding assay, inhibition of Hu PD-L1/PD-1 binding
# T1 sequence (Q9NZQ7 19-239 limits assumed): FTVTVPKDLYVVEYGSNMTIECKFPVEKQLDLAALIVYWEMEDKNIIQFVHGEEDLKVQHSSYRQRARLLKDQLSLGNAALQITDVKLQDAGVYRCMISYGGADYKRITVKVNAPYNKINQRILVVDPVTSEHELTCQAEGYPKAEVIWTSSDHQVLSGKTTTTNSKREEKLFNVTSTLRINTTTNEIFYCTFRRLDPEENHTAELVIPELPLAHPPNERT
row,Binder,IC50
1,B1,25 nM
2,B2,283 nM
3,B3,108 nM
4,B4,7 nM
5,B5,258 nM
6,B6,82 nM
7,B7,2520 nM
8,B8,13 nM
9,B9,28 nM
10,B10,8 nM
11,B11,368 nM
12,B12,37 nM
13,B13,351 nM
14,B14,20 nM
